Experimental data: paper PMC8363725, “Mapping the biosynthetic pathway of a hybrid polyketide-nonribosomal peptide in a metazoan” (Nature Communications, 2021)

Columns and labels:
PKAL-1 = biological target: T1, PKAL-1 (Caenorhabditis elegans, UniProt O02171); assay: enzyme-coupled continuous spectrophotometric assay (NADH); assay type: biochemical; conditions: 4 mM ATP, 10 mM MgCl2, 100 mM hydroxylamine as acceptor, Tris pH 7.4, 22 °C; apparent
T1 construct: PKAL-1 from C. elegans cDNA library in pET16b-KH01, C-terminal His tag, expressed in E. coli BL21(DE3), Ni resin and Superdex 200
T1 sequence (O02171 1-497): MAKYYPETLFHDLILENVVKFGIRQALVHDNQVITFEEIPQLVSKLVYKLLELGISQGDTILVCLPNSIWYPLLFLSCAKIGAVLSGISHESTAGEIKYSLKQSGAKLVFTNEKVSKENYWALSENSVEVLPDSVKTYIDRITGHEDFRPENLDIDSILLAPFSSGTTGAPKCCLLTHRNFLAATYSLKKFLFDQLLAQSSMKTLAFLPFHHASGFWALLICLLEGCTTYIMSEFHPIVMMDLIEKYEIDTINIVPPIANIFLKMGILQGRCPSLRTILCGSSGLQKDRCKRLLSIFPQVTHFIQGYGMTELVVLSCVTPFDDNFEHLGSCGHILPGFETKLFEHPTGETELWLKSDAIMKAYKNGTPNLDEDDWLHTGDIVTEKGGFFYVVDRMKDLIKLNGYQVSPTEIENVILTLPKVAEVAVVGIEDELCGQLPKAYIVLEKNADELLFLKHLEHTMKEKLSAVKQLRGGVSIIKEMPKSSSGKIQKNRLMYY

purified protein = substrate: CCCCCCCCCCCCCCCC(=O)O; assay: purified protein; conditions: 4 mM ATP, 10 mM MgCl2, 100 mM hydroxylamine as acceptor, Tris pH 7.4, 22 °C, apparent
[1] = substrate: CCCCCCCCCCCCCC(=O)O; assay: enzyme-coupled continuous spectrophotometric assay (NADH); assay type: biochemical, Caenorhabditis elegans; conditions: 4 mM ATP, 10 mM MgCl2, 100 mM hydroxylamine as acceptor, Tris pH 7.4, 22 °C, apparent
[2] = substrate: CCCCCCCCCCCC(=O)O; assay: as above; assay type: biochemical, Caenorhabditis elegans; conditions: 4 mM ATP, 10 mM MgCl2, 100 mM hydroxylamine as acceptor, Tris pH 7.4, 22 °C, apparent
[3] = substrate: CCCCCCCCCC(=O)O; assay: as above; assay type: biochemical, Caenorhabditis elegans; conditions: 4 mM ATP, 10 mM MgCl2, 100 mM hydroxylamine as acceptor, Tris pH 7.4, 22 °C, apparent

In the case of `CCCCCCCC(=O)O` [C8], the Km (PKAL-1) is reported as “C12, which is in turn preferred over C10 and C8”.

B1: PKAL-1 (Caenorhabditis elegans) (protein)
chain: T1 sequence (O02171 1-497)
notes: PKAL-1 from C. elegans cDNA library in pET16b-KH01, C-terminal His tag, expressed in E. coli BL21(DE3), Ni resin and Superdex 200
Molecule B1 has a Km (purified protein) of 8.7 ± 0.4 µM, a kcat (purified protein) of 0.0127 ± 0.000484 s⁻¹ and a Km [1] of 21.8 ± 2.6 µM. For the same molecule, the kcat [1] was 0.03 ± 0.00223 s⁻¹, the Km [2] was 84.6 ± 17.5 µM and the kcat [2] was 0.00943 ± 0.00211 s⁻¹. The Km [3] was 411.0 ± 20.2 µM and the kcat [3] was 0.0437 ± 0.00284 s⁻¹.
